# The supplement of paper PMC10899765
# How the values were obtained:
# Details in all cases: 20 nM; 72 h
# [1] = system: MCF10A; assay: one-nucleolus phenotype percent effect (relative to siNT 0% and siNOL11 100%); higher = more cells with one nucleolus (ribosome biogenesis inhibition)
# Procedure: (§1)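 After 72 h, cells were fixed and stained with Hoechst and anti-fibrillarin, and nucleoli per nucleus were counted with CellProfiler. Values are plate-adjusted percent effect for the one-nucleolus and 5+ nucleoli phenotypes, normalised to siNT (0%) and to the positive controls siNOL11 or siKIF11 (100%), as the mean of biological triplicates. Percent viability is the nuclei count relative to siNT.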
# [2] = system: MCF10A; assay: 5+ nucleoli phenotype percent effect (relative to siNT 0% and siKIF11 100%); higher = more cells with five or more nucleoli
# Procedure: as §1
# [3] = system: MCF10A; assay: percent viability (nuclei count relative to siNT); higher = more viable cells
# Procedure: as §1
Sequence,one-nucleolus phenotype percent effect [1] [%],5+ nucleoli phenotype percent effect [2] [%],percent viability [3] [%]
ACCACUGCACUCCAGCCUGAG [hsa-miR-1273g-3p],5.96,-16.5,39.3
ACUGGACUUAGGGUCAGAAGGC [hsa-miR-422a],12.5,-13.7,37.8
UAGUGAGUUAGAGAUGCAGAGCC [hsa-miR-3174],12.5,-38.2,38.1
AUCCCCAGAUACAAUGGACAA [hsa-miR-2355-5p],1.32,-14.8,68.5
UUCCUUCUGUUGUCUGUGCAG [hsa-miR-6868-3p],-3.76,-19.2,28.1
UUAACUCCUUUCACACCCAUGG [hsa-miR-4764-3p],-18,15.3,91.4
CCAGGGGGAUGGGCGAGCUUGGG [hsa-miR-6798-5p],-16.7,13.9,77.9
CACUGUUUCACCACUGGCUCUU [hsa-miR-4676-3p],-8.83,18.4,49.2
CAGCAGUGCGCAGGGCUG [hsa-miR-4519],8.95,8.89,27.2
UAGCGGGGAUUCCAAUAUUGG [hsa-miR-4781-5p],46.5,-29.7,24.3
CAAAGUGCUGUUCGUGCAGGUAG [hsa-miR-93-5p],-18.1,59.5,64.1
UGAGCCCUGUCCUCCCGCAG [hsa-miR-1233-3p],-6.71,7.25,63.8
UGACUCUGCCUGUAGGCCGGU [hsa-miR-4522],23.6,-19.6,16.2
AGGGGACUGGUUAAUAGAACUA [hsa-miR-4652-5p],47.2,-5.22,14.5
UUAAUGCUAAUCGUGAUAGGGGU [hsa-miR-155-5p],8.74,-38.5,38.2
UAUACCUCAGUUUUAUCAGGUG [hsa-miR-875-5p],-18.7,32.3,119
AGAAAGGUGGAGGGGUUGUCAGA [hsa-miR-6730-5p],47.3,-33.5,24.7
GUUAGGGCCAACAUCUCUUGG [hsa-miR-2909],-6.14,5.52,48.3
UCUGCCCCCUCCGCUGCUGCCA [hsa-miR-1913],-11.1,54.4,88.8
UUGUGUCAAUAUGCGAUGAUGU [hsa-miR-592],31.3,-26.9,69.9

Sequence,one-nucleolus phenotype percent effect [1] [%],5+ nucleoli phenotype percent effect [2] [%],percent viability [3] [%]
UCACAAGGUAUUGACUGGCGUA [hsa-miR-4457],1.5,-15.7,47.9
AGUCAUUGGAGGGUUUGAGCAG [hsa-miR-616-3p],10.7,-20,85.2
AAAGGAAAGUGUAUCCUAAAAG [hsa-miR-651-3p],-19.5,37,139
UCUGCCAUCCUCCCUCCCCUAC [hsa-miR-4769-3p],-18,30.9,87
CUCCCACUUCCAGAUCUUUCU [hsa-miR-3156-3p],-4.85,12,34.1
UGUGCAGCAGGCCAACCGAGA [hsa-miR-3944-5p],-7.88,4.63,69
UCAGCUGGCCCUCAUUUC [hsa-miR-1207-3p],65,-48.5,15.3
UGGAGACGCGGCCCUGUUGGAGU [hsa-miR-139-3p],20.9,-24.5,68
AUCACAUUGCCAGUGAUUACCC [hsa-miR-23c],2.08,-6.12,93.5
UUGGACUUUUUCAGAUUUGGGGAU [hsa-miR-5009-5p],19.8,-5.29,43.5
GUGAAAUGUUUAGGACCACUAG [hsa-miR-203a],10.2,3.03,40.9
ACCAGCCUGUGUCCACCUCCAG [hsa-miR-6849-3p],13.6,-31,46
AUCAUAUGAACCAAACUCUAAU [hsa-miR-5007-3p],-22.4,45.1,107
GAUGAUGCUGCUGAUGCUG [hsa-miR-1322],24.5,-20.7,41.1
CUGUACAGGCCACUGCCUUGC [hsa-let-7g-3p],-2.69,-28.3,55.1
AAUCAUACAGGGACAUCCAGUU [hsa-miR-487a],-6.53,-7.13,56
CCCCGCCACCGCCUUGG [hsa-miR-4258],-17.4,29.4,54.5
CAAAGCGCUUCCCUUUGGAGC [hsa-miR-518d-3p],42.6,-31.6,29.8
CUAGCACACAGAUACGCCCAGA [hsa-miR-585-5p],46,-45.7,36.5
UCAUUUUUGUGAUGUUGCAGCU [hsa-miR-153-5p],-16.7,3.53,55

Sequence,one-nucleolus phenotype percent effect [1] [%],5+ nucleoli phenotype percent effect [2] [%],percent viability [3] [%]
UGUGAGGUUGGCAUUGUUGUCU [hsa-miR-1294],19,-10.7,28.9
AGCUCUAGAAAGAUUGUUGACC [hsa-miR-6502-5p],-17.4,66.5,93.5
CCCAGUGUUCAGACUACCUGUUC [hsa-miR-199a-5p],4.51,-30.3,68.8
GAAGUUGCCCAUGUUAUUUUCG [hsa-miR-495-5p],1.67,-1.1,42.2
AACUAGUAAUGUUGGAUUAGGG [hsa-miR-3923],43.2,-20.8,21.9
GUAGAGGAGAUGGCGCAGGG [hsa-miR-877-5p],-6.88,10.3,54.7
AAUAUUAUACAGUCAACCUCU [hsa-miR-656],3.93,6.28,66.6
GGUGGGGGGUGUUGUUUU [hsa-miR-4472],9.55,11.6,40
ACCCCUCGUUUCUUCCCCCAG [hsa-miR-6795-3p],-18.5,14.8,101
CUCUAGAGGGAAGCGCUUUCUG [hsa-miR-518e-5p],-0.877,3.26,26.7
UUGGAAGCUUGGACCAACUAGCUG [hsa-miR-6079],28.7,-27.8,31.5
UGGGUAGAGAAGGAGCUCAGAGGA [hsa-miR-3132],1.88,62.9,21.4
UGCCUCUUUUCCACGGCCUCAG [hsa-miR-6781-3p],-1.18,2.23,38.9
UGCCCCAUCUGUGCCCUGGGUAGGA [hsa-miR-3189-5p],1.04,42.8,52.5
AUCCCACCACUGCCACCAU [hsa-miR-1260b],-10.3,18.9,30.7
UGCUGGAUCAGUGGUUCGAGUC [hsa-miR-1287],64.1,-26.2,25.2
AAUCGGACCCAUUUAAACCGGAG [hsa-miR-5188],-9.59,10.2,90.7
UUAGGCCAUCAUCCCAUUAUGC [hsa-miR-5704],-23.2,46.5,181
UUUCCUACCCUACCUGAAGACU [hsa-miR-3685],16.6,-32.6,36.6
